Measurements taken from PMC9110341, “A nucleotide-sensing oligomerization mechanism that controls NrdR-dependent transcription of ribonucleotide reductases” (Nature Communications, 2022).
Numbering of substitutions follows the chain as printed. “And” between values parts separate entries of the source, which are not always exact repeats. Equal entries are not always repeated. Blank lines part the entries; values can stand above or below the molecule they belong to.

Tests used:
[1] = molecular target: NrdRΔNΔC, truncated S. coelicolor NrdR lacking both N- and C-terminal domains (Streptomyces coelicolor) (UniProt O69980); test: SEC; analytical SEC, Superdex 200 PC 3.2/30, 7 °C; 50 mM Tris-HCl pH 8.5, 50 mM KCl, 10 mM MgCl2, 0.5 mM TCEP, nucleotides in sample and buffer; 64 µM NrdR samples
NrdR [2] = molecular target: T1, NrdR (Streptomyces coelicolor, UniProt O69980); test: isothermal titration calorimetry, one set of sites; assay type: binding; conditions: 10 mM MgCl2, 50 mM Tris-HCl pH 8, 300 mM NaCl, 10% glycerol, 1 mM TCEP; 20 and 10 °C (which one not told)
T1 construct: full-length wild type, C-terminal His tag (pET30a(+)::nrdR), E. coli BL21(DE3); apo dimer 44 kDa, dodecamer with ATP, octamer/tetramer with dATP + ATP

NrdR [3] = molecular target: T1, NrdR; test: isothermal titration calorimetry, one set of sites; assay type: binding
NrdR [4] = molecular target: T2, NrdR (Streptomyces coelicolor M145, UniProt O69980 1-182); test: MST; 1 mM dATP + 1 mM ADP, 10 mM Mg2+; MST: 25 mM Tris-HCl pH 7.6, 150 mM NaCl, 10 mM MgCl2, 5% glycerol, 1 mM DTT, 0.05% Tween-20, nucleotides 1 mM each, 10 nM Cy5-dsDNA, room temperature; conditions: protein: recombinant; tags: C-terminal His6 (pET30a); chain copies: 4; label: 5'-Cy5 on sense strand; blunt
T2 sequence: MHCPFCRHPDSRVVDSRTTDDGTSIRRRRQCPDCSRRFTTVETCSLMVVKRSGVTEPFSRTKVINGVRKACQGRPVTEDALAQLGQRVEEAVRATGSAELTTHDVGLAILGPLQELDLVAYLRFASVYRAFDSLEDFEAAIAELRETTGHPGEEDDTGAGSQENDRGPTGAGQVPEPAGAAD

NrdR [5] = molecular target: T2, NrdR; test: MST; 1 mM dATP + 1 mM ATP, 10 mM Mg2+; MST: 25 mM Tris-HCl pH 7.6, 150 mM NaCl, 10 mM MgCl2, 5% glycerol, 1 mM DTT, 0.05% Tween-20, nucleotides 1 mM each, 10 nM Cy5-dsDNA, room temperature; conditions: protein: recombinant; tags: C-terminal His6 (pET30a); chain copies: 4; label: 5'-Cy5 on sense strand; blunt
[6] = molecular target: the molecule itself; test: GEMMA (gas-phase electrophoretic mobility molecular analysis); with dATP + ATP (50 µM nucleotide) and equimolar Mg acetate; 0.08 and 0.16 mg/ml; 100 mM ammonium acetate pH 7.3, 0.005% Tween-20
[7] = molecular target: the molecule itself; test: cryo-EM structure; ATP-loaded NrdR; 1 mM ATP and 10 mM MgCl2 added to apo-protein, SEC in 50 mM Tris-HCl pH 8.0, 150 mM NaCl, 10 mM MgCl2, 1 mM TCEP, 0.5 mM ATP; 0.4 mg/ml (19 µM monomer) on grids
[8] = molecular target: the molecule itself; test: GEMMA (gas-phase electrophoretic mobility molecular analysis); with 50 µM dAMP and equimolar Mg acetate; 0.08 mg/ml; 100 mM ammonium acetate pH 7.3, 0.005% Tween-20
NrdR R17A = molecular target: T3, NrdR R17A (Streptomyces coelicolor M145, UniProt O69980 1-182, R17A); test: MST; 1 mM dATP + 1 mM ATP; MST: 25 mM Tris-HCl pH 7.6, 150 mM NaCl, 10 mM MgCl2, 5% glycerol, 1 mM DTT, 0.05% Tween-20, nucleotides 1 mM each, 10 nM Cy5-dsDNA, room temperature; conditions: protein: recombinant; tags: C-terminal His6 (pET30a); label: 5'-Cy5 on sense strand; blunt
T3 sequence: T2 sequence with R17A

NrdR D15A = molecular target: T4, NrdR D15A (Streptomyces coelicolor M145, UniProt O69980 1-182, D15A); test: as above; conditions: protein: recombinant; tags: C-terminal His6 (pET30a); label: 5'-Cy5 on sense strand; blunt
T4 sequence: T2 sequence with D15A

NrdR D15A/R17A = molecular target: T5, NrdR D15A/R17A (Streptomyces coelicolor M145, UniProt O69980 1-182, D15A;R17A); test: as above; conditions: protein: recombinant; tags: C-terminal His6 (pET30a); label: 5'-Cy5 on sense strand; blunt
T5 sequence: T2 sequence with D15A, R17A

NrdR [9] = molecular target: T2, NrdR; test: as above; conditions: protein: recombinant; tags: C-terminal His6 (pET30a); chain copies: 4; label: 5'-Cy5 on sense strand; blunt
NrdR [10] = molecular target: T2, NrdR; test: MST; MST: 25 mM Tris-HCl pH 7.6, 150 mM NaCl, 10 mM MgCl2, 5% glycerol, 1 mM DTT, 0.05% Tween-20, nucleotides 1 mM each, 10 nM Cy5-dsDNA, room temperature; conditions: protein: recombinant; tags: C-terminal His6 (pET30a); chain copies: 4; label: 5'-Cy5 on sense strand; blunt

stoichiometry N [1]: 2
Molecule: NrdRΔNΔC, truncated S. coelicolor NrdR lacking both N- and C-terminal domains (from UniProt O69980 1-182) (domain or fragment)

Molecule: Nc1ncnc2c1ncn2[C@H]1C[C@H](O)[C@@H](COP(=O)(O)O)O1 [dAMP]
KD (NrdR [2]): AMP, dAMP, and di-cyclic AMP were comparable to ATP in binding strengths

Kd (NrdR [3]): 4000 nM
Molecule: Nc1ncnc2c1ncn2[C@@H]1O[C@H](COP(=O)(O)OP(=O)(O)OP(=O)(O)O)[C@@H](O)[C@H]1O [ATP]

Kd (NrdR [3]): 400 nM
Molecule: Nc1ncnc2c1ncn2[C@H]1C[C@H](O)[C@@H](COP(=O)(O)OP(=O)(O)O)O1 [dADP]

Kd (NrdR [3]): 1000 nM
Molecule: Nc1ncnc2c1ncn2[C@H]1C[C@H](O)[C@@H](COP(=O)(O)OP(=O)(O)OP(=O)(O)O)O1 [dATP]

Molecule: Nc1ncnc2c1ncn2[C@@H]1O[C@H](COP(=O)(O)O)[C@@H](O)[C@H]1O [AMP]
KD (NrdR [2]): AMP, dAMP, and di-cyclic AMP were comparable to ATP in binding strengths

Molecule: Nc1ncnc2c1ncn2[C@@H]1O[C@@H]2COP(=O)(O)O[C@H]3[C@@H](O)[C@H](n4cnc5c(N)ncnc54)O[C@@H]3COP(=O)(O)O[C@H]2[C@H]1O [cyclic di-AMP]
KD (NrdR [2]): AMP, dAMP, and di-cyclic AMP were comparable to ATP in binding strengths

Kd (NrdR [3]): 600 nM
Molecule: Nc1ncnc2c1ncn2[C@@H]1O[C@H](COP(=O)(O)OP(=O)(O)O)[C@@H](O)[C@H]1O [ADP]

B1: nrdAB promoter 57 bp (dsDNA)
DNA 1: CCGGGACACAACATCTGGGGGTGCTCGCGTCCCCCGGCACAAGATGTATGCTCATGC
DNA 2: GCATGAGCATACATCTTGTGCCGGGGGACGCGAGCACCCCCAGATGTTGTGTCCCGG
Kd (NrdR [4]): 159 ± 22 nM
Kd (NrdR [5]): 142 ± 31 nM

B2: Streptomyces coelicolor NrdR (wild type) (natural protein)
chain: T2 sequence
notes: RNR-specific transcriptional repressor NrdR of Streptomyces coelicolor strain M145; the nrdR gene cloned into pET30a(+), wild type; N-terminal Zn-ribbon domain followed by an ATP-cone domain and a C-terminal part; the wild-type nrdR gene was amplified, so probably the whole protein; Holds about 0.78 mol Zn per mol protein; also called apo-NrdR; ATP-loaded NrdR
stoichiometry N [6]: 8 and 4
stoichiometry N [7]: 12
stoichiometry N [8]: 2

B3: nrdRJ promoter 57 bp (dsDNA)
DNA 1: GCCAATCCCCACATCTAGTGGTTGGATAGCGTGAGCAGCCCACAAGTTGTGGTCCCC
DNA 2: GGGGACCACAACTTGTGGGCTGCTCACGCTATCCAACCACTAGATGTGGGGATTGGC
Kd (NrdR [4]): 68 ± 16 nM
binding result (NrdR R17A): no binding
binding result (NrdR D15A): binds
binding result (NrdR D15A/R17A): no binding
Kd (NrdR [5]): 51 ± 11 nM

B4: nrdRJ T9/T18/T40/T49 (dsDNA)
DNA 1: B3 DNA 1 with C9T, G18T, C40T, G49T
DNA 2: B3 DNA 2 with C9A, G18A, C40A, G49A
binding result (NrdR R17A): no binding

B5: nrdRJ C18/C49 (dsDNA)
DNA 1: B3 DNA 1 with G18C, G49C
DNA 2: B3 DNA 2 with C9G, C40G
fold decrease in affinity vs wild-type DNA (NrdR [9]): ~60 fold lower affinity than wild-type DNA
binding result (NrdR R17A): no binding

B6: nrdRJ G9/C18 (dsDNA)
DNA 1: B3 DNA 1 with C9G, G18C
DNA 2: B3 DNA 2 with C40G, G49C
fold decrease in affinity vs wild-type DNA (NrdR [9]): ~50 fold lower affinity than wild-type DNA
binding result (NrdR R17A): no binding

B7: cydA promoter 57 bp (dsDNA)
DNA 1: GTAGGTCATAATTGCTTGTGAATGTGAACGCGTTCACAAGCGTGTCCCGATTGCGCC
DNA 2: GGCGCAATCGGGACACGCTTGTGAACGCGTTCACATTCACAAGCAATTATGACCTAC
binding result (NrdR [10]): no binding
binding result (NrdR R17A): no binding
Kd (NrdR D15A): 2600 ± 300 nM
